Results: PMC9416875, “Structural basis for non-canonical integrin engagement by Bordetella adenylate cyclase toxin” (Cell reports, 2022)

Target: RTX751 (Bordetella pertussis adenylate cyclase toxin, ACT, residues 751-1,706) (Bordetella pertussis, UniProt P0DKX7)
Experiment: […], room temperature 20 min; […]; 20 mM Tris pH 7.5, 150 mM NaCl, 1 mM CaCl2, 1 mM MgCl2; […]
Conditions: both partners purified

B1: M1F5 Fab (anti-ACT RTX domain antibody M1F5) (Fab, V domains shown)
VH: QVQLKQSGPELVKPGASVRMSCKGSGYSFTFHNIHWVKQRPGQGLEWIGWIYPGDGNTKYNEKFKGKTTLTVDKSSNTAYMLLSSLTSEDSAIYFCAYGNYYFDQWGQGTTLTVSS
VL: IQMMQSTSSLSASLGDRVTISCSASQGITNYLNWYQQKPDGTVKLLIYYTSSLHSGVPSRFSGSGSGTDYSLTISNLEPEDIATYYCQQYSNLPWTFGGGTKLEIK
notes: also called M1F5 antibody; M1F5 IgG
stoichiometry N: 1
